This test deals with KSHV gB653-mut ectodomain (Kaposi's sarcoma-associated herpesvirus (KSHV), strain GK18) (UniProt F5HB81). The test is described as follows: cryo-EM structure.

The stoichiometry N is a count of units in the complex or per binding partner.

Substance “KSHV gB653-mut ectodomain (from UniProt F5HB81 27-653) (domain or fragment)” registered a stoichiometry N of 3.

The values are drawn from PMC12279188.
